{"source": "the nanobody polyreactivity screen of Harvey et al. (2022)", "data": [{"assay": "yeast display, Sf9 membrane polyspecificity reagent, FACS + sequencing; frameworks hold sequencing errors", "method_in_brief": "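Nanobodies from a synthetic yeast display library (Saccharomyces cerevisiae BJ5465), induced 36–48 hours with galactose, were stained 1 hour at 4 °C with 10% biotinylated, detergent-solubilized Sf9 membrane reagent, enriched on streptavidin microbeads, then FACS-sorted. Anti-HA (expression) and streptavidin (reagent binding) fluorescence set low and high (top ~1%) gates. Polyreactivity labels come from the gate of origin. Genes were colony-PCR amplified, MiSeq 2 × 250 sequenced and filtered by CDR length.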", "values": [{"sequence": "QVQLVESGGGLVQAGGSLRLSCAASGRTFYWYGMGWYRQAPGKERELVATISRGSRTYYADSVKGRFTISRDNAKNTVYLQMNSLKPEDTAVYYCNADTWPGEYNGYFSGAYDYWGQGTQVTVSS", "polyreactivity (PSR sort gate)": "high polyreactivity"}, {"sequence": "QVQLVESGGGLVQAGGSLRLSCAASGRTFYYNAMGWSRQATGKERELVAAISGRAGSTYYADSVKGRYTISRDNAKNTVYLQMNSLKPEDTAVYYCNAVRYKYTGRFGYWGQGTQVTVSS", "polyreactivity (PSR sort gate)": "high polyreactivity"}, {"sequence": "QVQLVESGGGLVQAGGSLRLSCAASGRTFYYNAMGWYRQAPGKEMELVAVITRGSTYYADSVKGRFTISRDNAKNTVYLQMNSLKPEDTAVYYCAKYRHYHRGYDYWGQGTQVTVSS", "polyreactivity (PSR sort gate)": "high polyreactivity"}, {"sequence": "QVQLVESGGGLVQAGGSLRLSCAASGRTFYYNAMGWYRQAPGKERELVARITSSGGSTYYADSVKGRFTISRDNAKSTVYLQMNSLKPEDTAVSYCAAGRSRYLWFGRDFDYWGQGTQVTVSS", "polyreactivity (PSR sort gate)": "low polyreactivity"}, {"sequence": "QVQLVESGGGLVQAGGSLRLSCAASGRTFYYNAMGWYRQAPGKERELVASISWSGTSTYYADSVKGRFTISRDNAKNTVYLQMNSLKPEDTAVYYCATDSYWRQDLYRYEYWGQGTQVTVSS", "polyreactivity (PSR sort gate)": "high polyreactivity"}, {"sequence": "QVQLVESGGGLVQAGGSLRLSCAASGRTFYYNDMGWYRQAPGKERELVAAISWSGVSTSYADSVKGRFTISRDNAKNTVYLQMNSLKPEDTAVYYCAADNDGWYFHITEYDYWGQGTQVTVSS", "polyreactivity (PSR sort gate)": "low polyreactivity"}, {"sequence": "QVQLVESGGGLVQAGGSLRLSCAASGRTFYYNDMGWYRQAPGKERELVATISSGGSTYYADSVKGRFTISRDNAKNTVYLQMNSLKPEDTAVYYCAKRRRYDGWYAGPLYKYDYWGQGTQVTVSS", "polyreactivity (PSR sort gate)": "low polyreactivity"}, {"sequence": "QVQLVESGGGLVQAGGSLRLSCAASGRTFYYYAMAWYRPAPGKERELVAAISWSGGRTYYADSVKGRFTISRDNAKNTVYLLMNSLIPVDTAVYYCNAEPPRGYTVSSGGEMDYWGQGTQVTVSS", "polyreactivity (PSR sort gate)": "low polyreactivity"}, {"sequence": "QVQLVESGGGLVQAGGSLRLSCAASGRTFYYYAMGWYREAPGKERELVAAINSGVTTSYADSVKGRFTISRDNAKNTVYLQMNSLKPEDTAVYYCAARTFSAFWRGGYDYWGQGTQVTVSS", "polyreactivity (PSR sort gate)": "low polyreactivity"}, {"sequence": "QVQLVESGGGLVQAGGSLRLSCAASGRTFYYYAMGWYRHAPGKERELVAAISIGGITYADSVKGRFTISRDNAKNTVYLQMNSLKPEDTAVYYCAATARQSRGRFYWGQGTQVTVSS", "polyreactivity (PSR sort gate)": "low polyreactivity"}, {"sequence": "QVQLVESGGGLVQAGGSLRLSCAASGRTFYYYAMGWYRQAPGKEMELGAAIRRSGSSTYYADSVKGRFTISRDNAKNTVYLQMNSLKPEDTAVYYCAAAVYQRARYYWGQGTQVTVSS", "polyreactivity (PSR sort gate)": "high polyreactivity"}, {"sequence": "QVQLVESGGGLVQAGGSLRLSCAASGRTFYYYAMGWYRQAPGKERELVAAINSGGTTSYADSVKGRFTISRDNAKNTVYFQMNSLKPEDTAVYYCAASDYGFPEYLTAYFYWGQGTLVTVSS", "polyreactivity (PSR sort gate)": "low polyreactivity"}, {"sequence": "QVQLVESGGGLVQAGGSLRLSCAASGRTFYYYAMGWYRQAPGKERELVAAIRWRATSTFYADSVKGRFTISRDNAKNTVYLQMNSLKPEDTAVYYCATRGRWGYSGRSQGYSIYNYWGQGTKVTVSS", "polyreactivity (PSR sort gate)": "high polyreactivity"}, {"sequence": "QVQLVESGGGLVQAGGSLRLSCAASGRTFYYYAMGWYRQAPGKERELVAAISGSGTNTYYADSVKGRFTISRDNAKNTVYLQMNSLKPEDTAVYYCAAEYFGFYTDGGVFDLYYWGQGTQVTVSS", "polyreactivity (PSR sort gate)": "low polyreactivity"}, {"sequence": "QVQLVESGGGLVQAGGSLRLSCAASGRTFYYYAMGWYRQAPGKERELVAAISWTGGNTYYADSVKGRFTISRDNAKNTVYLQMNSLKPEDTAVYYCAKQTRGYVRGPMYYWGQGTQVTVSS", "polyreactivity (PSR sort gate)": "high polyreactivity"}, {"sequence": "QVQLVESGGGLVQAGGSLRLSCAASGRTFYYYAMGWYRQAPGKERELVAAITGSGANTYYADSVKGRFTISRDNAKNTVYLQMNSLKPEDTAVYYCNTRTLVAMGYWGQGTQVTVSS", "polyreactivity (PSR sort gate)": "high polyreactivity"}, {"sequence": "QVQLVESGGGLVQAGGSLRLSCAASGRTFYYYAMGWYRQAPGKEREYVASITWRGGRTYYADSVKGRFTISRDNAKNTVYLQMNSLKPEDTAVYYCAADGSYAIGGYGYWGQGTQVTVSS", "polyreactivity (PSR sort gate)": "high polyreactivity"}, {"sequence": "QVQLVESGGGLVQAGGSLRLSCAASGRTFYYYAMGWYRQPPGKERELVAAIRWSTGSTYYADSVKGRFTISRVNAQITVYLQMNSLKPEDTAVYYCAADTWYIQWGYYWGQGTQVTVSS", "polyreactivity (PSR sort gate)": "low polyreactivity"}, {"sequence": "QVQLVESGGGLVQAGGSLRLSCAASGRTFYYYDMGWYRQAPGKERELVAAIRRSGGSTYYADSVKGRFTISRDNAKNTVYLQMNSLKPEDTAVYYCAAGRRYSGSYDYRGQGTQVTVSS", "polyreactivity (PSR sort gate)": "high polyreactivity"}, {"sequence": "QVQLVESGGGLVQAGGSLRLSCAASGRTFYYYTMGWYRQAPGKDRELVAAIRGSGGSTYYADSVKGRFTISRDNAKNTVYLQMNSLKPEVTAVYYCNATRRRSARYGYISAYDYWGQGTQVTVSS", "polyreactivity (PSR sort gate)": "high polyreactivity"}, {"sequence": "QVQLVESGGGLVQAGGSLRLSCAASGRTFYYYTMGWYRQAPGKERELVAANTWNGGSTYYADSVKGRFTISRDNAKNTVYLQMNSLKPEDPAVYYCNARWTWRYDYWGQGTQVTVSS", "polyreactivity (PSR sort gate)": "high polyreactivity"}, {"sequence": "QVQLVESGGGLVQAGGSLRLSCAASGRTFYYYVMGWYRQAPGKERELVAGITWSGGGTYYADSVKGRFTISRYNAKNTVYLQMNRLKPEDTAVYYCAKKDTLSNRWYGYWGEGTQVTVSS", "polyreactivity (PSR sort gate)": "high polyreactivity"}, {"sequence": "QVQLVESGGGLVQAGGSLRLSCAASGRTFYYYYTMGWYRQAPGKERELVAAISRSGSTNYADSVKGRFTISRDNAKNTVYLQMNSLKPEDTAVYYCARSYRSDGSRFGYWGQGTQVTVSS", "polyreactivity (PSR sort gate)": "low polyreactivity"}, {"sequence": "QVQLVESGGGLVQAGGSLRLSCAASGRTGYMGWYRQAPGKERELVAAITSRGGSTYYADSVKGRFTISRDNAKNTVYLQMNSLKPEDTAVYYCAAPAYHKRTSRGDYWGQGTQVTVSS", "polyreactivity (PSR sort gate)": "low polyreactivity"}, {"sequence": "QVQLVESGGGLVQAGGSLRLSCAASGRTIAPYAMGSYRQAPGKERELVAAITYSGGSTYYADSVKGRFTISRDNAKNTVYLQMNSLKPEDTAVYYCAVDTTTSYTVEYDYWGQGTQVTVSS", "polyreactivity (PSR sort gate)": "low polyreactivity"}, {"sequence": "QVQLVESGGGLVQAGGSLRLSCAASGRTIASYTMGWYRPAPGKERDLVAAISKSGGSTYYADSVKGRFTISRDNSKNTVYLQMNSLKPEDTAVYYCNAVGARVASATGMEYWGQGTQVTVSS", "polyreactivity (PSR sort gate)": "high polyreactivity"}, {"sequence": "QVQLVESGGGLVQAGGSLRLSCAASGRTIDRNAMGWYRQPPGKERELVAAISGSGGRTYYADSVKGRFTISRDNEKNSVYLQMNSLKPEDTAVYYCAARVGSSPSKSKYDYWGQGTQVTVSS", "polyreactivity (PSR sort gate)": "high polyreactivity"}, {"sequence": "QVQLVESGGGLVQAGGSLRLSCAASGRTIDSNAMGWYRQAPGKERELVATIDRGGSTNYADSVKGRFTISRDNAKNTVYLQMNSLKPEDTAVYYCATRGHYHAFYYTYPRYDSWGQGTQVTVSS", "polyreactivity (PSR sort gate)": "low polyreactivity"}, {"sequence": "QVQLVESGGGLVQAGGSLRLSCAASGRTIDYNGMGSYRQAPGKERELVAVISSSGGSTFYADSVKGRFTISRDNAKNTVYLQMNSLKPVDTAVYYCAADFIVAYTLHGSYDYWGQGTQVTVSS", "polyreactivity (PSR sort gate)": "low polyreactivity"}, {"sequence": "QVQLVESGGGLVQAGGSLRLSCAASGRTIGGNAMGRYRQAPGKERELVAAISWSGGRTYYADSVKGRFTISRDNAKNTVYLQMNSLKPEDTAVYYCNKVGYGFHGDYDYWGQGTQVTVSS", "polyreactivity (PSR sort gate)": "high polyreactivity"}, {"sequence": "QVQLVESGGGLVQAGGSLRLSCAASGRTIGIYAMGLYRQAPGKERELVAAITWSGDSTYYADSVKGRFTISRDNAKNTVYLQMNSLKPEDTAVYYCAAYYLYRYQTMGYWGQGTLVTVSS", "polyreactivity (PSR sort gate)": "low polyreactivity"}, {"sequence": "QVQLVESGGGLVQAGGSLRLSCAASGRTIGLYGMGWYRQAPGKEREFDAAITRRGGSTYYADSVKGRFTISRDHAKNTVYLQMNSLKPEDTADYYCAAGYSSRYRGGLDYWGQGTQVTVSS", "polyreactivity (PSR sort gate)": "high polyreactivity"}, {"sequence": "QVQLVESGGGLVQAGGSLRLSCAASGRTIGVYAMGWYRQAPGKERELVAAISWSGGTTYYADSVKGRFTISRDNAKNTVYLQMNSLKPEDTAVYYCDADSYTEVDYWGQGTQVTVSS", "polyreactivity (PSR sort gate)": "low polyreactivity"}, {"sequence": "QVQLVESGGGLVQAGGSLRLSCAASGRTIGYNAMGWYRQAPGKERELVAAITRSAGITYYADSVKGRFTISRDNAKNTVYLQLNSLKPEDTAVYYCNKRVVYRSSLFDYWGQGTQVTVSS", "polyreactivity (PSR sort gate)": "low polyreactivity"}, {"sequence": "QVQLVESGGGLVQAGGSLRLSCAASGRTINGNTMGWYRQAPGKERELVAVIDWSGGSTYYADSVKGRFTISRDTAKNTVYLQMNSLKPEDTAVYFCATVSGYAYYYWGQGTQVTVSS", "polyreactivity (PSR sort gate)": "low polyreactivity"}, {"sequence": "QVQLVESGGGLVQAGGSLRLSCAASGRTIPFYAMGWYRQAPGKERELVAAISSSAGRTYYADSVKGRFSISRDNAKNTVYLQLNSLKPEDTAVYYCAARLYCRYRYDYWGQGTQVTVSS", "polyreactivity (PSR sort gate)": "low polyreactivity"}, {"sequence": "QVQLVESGGGLVQAGGSLRLSCAASGRTIPHNAMGWYRQAPGKERQLVATITAGSGSTYYADSVKGRFTISRDNAKNTVSLQLNSLKPEDTAVYYCNAKWTLYQSDYWYYIYDYWGQGTQVTVSS", "polyreactivity (PSR sort gate)": "low polyreactivity"}, {"sequence": "QVQLVESGGGLVQAGGSLRLSCAASGRTIQTYAMGWYRQAPRKERELVAAITSSGGSTYYADSVKGRFTISRDNAKNTVYLQMNSLIPEDSAVYYWSAYRRIRVGVPVRTYYYWGQGTQVTVSS", "polyreactivity (PSR sort gate)": "high polyreactivity"}, {"sequence": "QVQLVESGGGLVQAGGSLRLSCAASGRTIQYNAMGWYRQAPGKERQLVAAISSSGGSTYYADSVKGRFTISRDNAKNTVYLQMNSLKPEDTAVYYCNAYSQSWNFYGDGDYWGQGTQVTVSS", "polyreactivity (PSR sort gate)": "low polyreactivity"}, {"sequence": "QVQLVESGGGLVQAGGSLRLSCAASGRTIRAYTMGWYRQAPGNERELVAAISTPGGSTYYADSVKGRFTISRDNAKNTVYLQLNSLKPEDTAVYYCAADYGGPITGYEYWGQGTQVTVSS", "polyreactivity (PSR sort gate)": "low polyreactivity"}, {"sequence": "QVQLVESGGGLVQAGGSLRLSCAASGRTIRVYAMGWYRQAPGKERELVARINFRGGSTRYADSVKGRFTISRDNAKNTVYLQMNSLKPEDTAVYYCAARPSSFYYSNGFDYWGQGTQVTVSS", "polyreactivity (PSR sort gate)": "high polyreactivity"}, {"sequence": "QVQLVESGGGLVQAGGSLRLSCAASGRTIRYNALGWYREARGKERELVASIRRGGSTNYADSVKGRCTISRDNAKNPVYLHMNSLKPEDTAVSYCAAAGGGVRKVWGGSRYGYWGQGTQVTVSS", "polyreactivity (PSR sort gate)": "high polyreactivity"}, {"sequence": "QVQLVESGGGLVQAGGSLRLSCAASGRTIRYYAMGWYRQAPGKERELVAAITSGGSTYYADSVKGRFTISRDNAKNTVYLQMNSLKPEDTAVYYCAAARYEPFIYDYGYWGQGTQVTVSS", "polyreactivity (PSR sort gate)": "low polyreactivity"}]}]}
